What was measured:
[1] = Fluorescence polarization (FP) labeling assay; format: binding
From the text: Fluorescence polarization (FP) is ideal for the study of small fluorescent ligands binding to proteins. It is unique among methods used to analyze molecular binding because it gives direct nearly instantaneous measure of a substrate bound/free ratio. Therefore, an FP assay was developed as an alternative approach to fluorimage gel analysis of the purified DhaA mutants. […] To place this rate in perspective, approximately 42 and 420-fold more A7 and parental, i.e., DhaA.H272F, protein, respectively, was required in the reaction to obtain measurable rates. Under the labeling conditions used, it is evident that the H11YL mutant was also considerably faster than A7 and parental, DhaA.H272F proteins with the fluorescein-based substrate. However, it appears that labeling of H11YL with carboxyfluorescein-C10H21NO2—Cl is markedly slower than labeling with the corresponding carboxytetramethylrhodamine-C10H21NO2—Cl substrate. Four-fold more H11YL protein was used in the carboxyfluorescein-C10H21NO2—Cl reaction (150 nM) versus the carboxytetramethylrhodamine-C10H21NO2—Cl reaction (35 nM), yet the rate observed appeared to be qualitatively slower than the observed carboxytetramethylrhodamine-C10H21NO2—Cl rate.
Based on the sensitivity and truly homogenous nature of this assay, FP was used to characterize the labeling properties of the purified DhaA mutants with the fluorescently coupled substrates. The data from these studies was then used to calculate a second order rate constant for each DhaA mutant-substrate pair. […] However, in each case labeling was slower with the carboxyfluorescein-C10H21NO2—Cl substrate. All of the first generation DhaA mutants characterized by FP had rates that ranged from 7 to 3555-fold faster than the corresponding parental protein. By far, the biggest impact on labeling rate by a single amino acid substitution occurred with the three replacements at the 273 position (Y273L, Y273M, and Y273C) in the DhaA.H272F background. Nevertheless, in each of the first generation DhaA.H272F mutants tested, labeling with the carboxyfluorescein-C10H21NO2—Cl substrate always occurred at a slower rate (1.6 to 46-fold). […] The H11YL rate constant of 2.2×10^6 M^−1 sec^−1 was nearly identical to the rate constant calculated for a carboxytetramethylrhodamine-coupled biotin/streptavidin interaction. This value is consistent with an on-rate of 5×10^6 M^−1 sec^1 determined for a biotin-streptavidin interaction using surface plasmon resonance analysis (Qureshi et al., 2001). Several of the second generation mutants also had improved rates with the carboxyfluorescein-C10H21NO2—Cl substrate, however, as noted previously, these rates were always slower than with the carboxytetramethylrhodamine-C10H21NO2—Cl substrate. […]

[2] = target: T1, rapamycin-mediated FRB/FKBP protein-protein interaction (Homo sapiens, UniProt P42345+P62942); assay: Protein complementation labeling (PCL) in vitro with split HT2; format: biochemical; conditions: with or without 1 μM rapamycin, 0.1 μM TMR ligand
T1 construct: made in house; host or cells: cell-free: RiboMax transcription followed by Wheat Germ Plus translation
Experimental: The rapamycin-mediated FRB/FKBP protein-protein interaction and a mutant DhaA were employed in a PCL. FRB and FKBP will only interact when rapamycin is present. Therefore, if PCL is successful, the reconstituted reporter is labeled only when the fusion proteins are incubated together in the presence of rapamycin.
Two pF9 (Kan) vectors were generated which contained either FRB or FKBP ORF plus the linker sequence (GlyGlyGlyGlySer)2 (SEQ ID NO:14 represents GlyGlyGlyGlySer) upstream of the SefI/PmeI sites. A mutant DhaA gene (HT2) at positions corresponding to those useful to prepare Renilla luciferase fragments for PCS (see Example 2 and FIG. 7) with FRB-N terminal and FKBP-C terminal fusions. HT2 N- and C-termini halves were amplified using PCR primers and cloned into the SefI/PmeI sites. PCL was performed in vitro by expressing each clone individually using RiboMax followed by Wheat Germ Plus reactions (HT2). Protein was expressed with or without FluoroTect™. FluoroTect™ labeling ensured that all proteins were expressed in approximately equal amounts (data not shown). Unlabeled proteins were then incubated alone or with the appropriated partner with or without 1 μM rapamycin. Ten μl of these products were then incubated with 0.1 μM of a TMR labeled ligand for the mutant dehalogenase, for 2 hours in the dark. […]

[3] = target: T1, rapamycin-mediated FRB/FKBP protein-protein interaction; assay: PCL in transiently transfected CHO cells; format: cell-based; conditions: +/−1 μM rapamycin, 1.0 μM HaloTag TMR ligand
Experimental: For transient transfections, CHO cells were plated in a 6 well plate and transfected in duplicate using TransIT®-CHO. The next day, cells were incubated +/−1 μM rapamycin for 2.5 hours followed by 1.0 μM HaloTag® TMR ligand for 1 hour. Cells were washed in PBS, trypsinized, pelleted and mechanically lysed in 200 ul PBS with protease inhibitor and RQDNase I. Normalized amounts of proteins were microwaved for 30 seconds on high and run on a denaturing NuPAGE® gel.

[4] = Kinetic labeling studies, fluorimage gel analysis; format: binding; conditions: 10 ng protein, refined time-course, fluorimaged gel
Experimental: To facilitate comparative kinetic studies several improved DhaA mutants were selected for purification using a Glutathione Sepharose 4B resin. In general, production of DhaA.H272F and DhaA.D106C based fusions in E. coli was robust, although single amino acid changes may have negative consequences on the production of DhaA. As a result of this variability in protein production, the overall yield of the DhaA mutants also varied considerably (1-15 mg/mL). Preliminary kinetic labeling studies were performed using several DhaA.H272F derived mutants. Many, if not all, of the mutants chosen for analysis had faster labeling kinetics than the H272F parent. In fact, upon closer inspection of the time course, the labeling of several DhaA mutants including the first generation mutant YL and the two second generation mutants, A7YM and H11YL mutants appeared to be complete by 2 minutes. A more expanded time course analysis was performed on the DhaA.H272F A7 and the two second generation DhaA.H272F mutants A7YM and H11YL. […] The fluorescent bands on gel were quantitated and the relative rates of product formation determined. […] Under these labeling conditions a linear initial rate could be measured. Quantitation of the fluorimaged gel data allowed second order rate constants to be calculated. […]

[5] = Thermostability of mutant DhaAs; format: physicochemical
Experimental: Moreover, V7>V6>V7F>V3>HT2 for thermostability. For example, under some conditions (30 minute exposure to 48° C.) purified V7F loses 50% of its activity, while V7 still maintains 80% activity. The thermostability discrepancy between the two is more dramatic when they V7 and V7F are expressed in E. coli and analyzed as lysates.

T1 sequence (P42345 2012-2144 limits assumed): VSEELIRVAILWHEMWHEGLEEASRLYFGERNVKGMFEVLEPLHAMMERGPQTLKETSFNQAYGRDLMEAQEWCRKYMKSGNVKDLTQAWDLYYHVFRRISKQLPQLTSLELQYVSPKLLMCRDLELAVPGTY
T1 sequence (P62942 whole entry): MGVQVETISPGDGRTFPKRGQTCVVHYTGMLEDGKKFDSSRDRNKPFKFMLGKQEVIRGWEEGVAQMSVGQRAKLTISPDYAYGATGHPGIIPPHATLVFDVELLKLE

TMR labeling [2]: labeled
B1: H11YL: second generation DhaA.H272F mutant, H11 recombined with Y273L; SEQ ID NO:18 (protein)
chain: SEIGTGFPFDPHYVEVLGERMHYVDVGPRDGTPVLFLHGNPTSSYLWRNIIPHVAPSHRCIAPDLIGMGKSDKPDLDYFFDDHVRYLDAFIEALGLEEVVLVIHDWGSALGFHWAKRNPERVKGIACMEFIRPIPTWDEWPEFARETFQAFRTADVGRELIIDQNAFIEGALPMGVVRPLTEVEMDHYREPFLKPVDREPLWRFPNELPIAGEPANIVALVEAYMNWLHQSPVPKLLFWGTPGVLIPPAEAARLAESLPNCKTVDIGPGLFLLQEDNPDLIGSEIARWLPAL
carboxyfluorescein-C10H21NO2—Cl labeling rate slower/lower than carboxytetramethylrhodamine-C10H21NO2—Cl labeling rate [1]: 100 fold
calculated second order rate constant ([1]; FP): 2.2e+06 M⁻¹ s⁻¹
second order rate constant compared with the DhaA.H272F parent ([1]; FP): over four orders of magnitude higher
TMR labeling in CHO cells [3]: labeled irrespective of rapamycin addition
second order rate constant for labeling [4]: 500000 M⁻¹ s⁻¹
thermostability ranking [5]: V7>V6>V7F>V3>HT2

Reference: patent US20100273186A1, “SPLIT MUTANT HYDROLASE FUSION REPORTER AND USES THEREOF” (Promega Corporation, priority 2007, published 2010)
